Laboratory results taken from patent US20030194411A1.

Legend:
[1] = biological target: MN-PND peptide … (HIV-1 MN strain); assay: MN-PND ELISA, serum 1:20, day 0
[2] = biological target: MN-PND peptide … (HIV-1 MN strain); assay: MN-PND ELISA, serum 1:100, day 0
[3] = biological target: MN-PND peptide … (HIV-1 MN strain); assay: MN-PND ELISA, serum 1:500, day 0
[4] = biological target: MN-PND peptide … (HIV-1 MN strain); assay: MN-PND ELISA, serum 1:1000, day 0
[5] = biological target: MN-PND peptide … (HIV-1 MN strain); assay: MN-PND ELISA, serum 1:2500, day 0

“guinea pig serum sample 0 (day 0, Example V) (antibody)” was tested. Which O.D. [1] did it give?
Its O.D. is 0.15 O.D.

What about the O.D. [2] of the same substance?
The O.D. was 0.07 O.D.

And the O.D. [3]?
The O.D. was 0.05 O.D.

What about the O.D. [4] of the same substance?
The O.D. was 0.05 O.D.

And the O.D. [5]?
The O.D. was 0.04 O.D.
